Measured values reported in patent US20200115460A1 (TEIJIN PHARMA, published 2020).

How the values were obtained:
human IGF-I receptor [1] = biological target: T1, human IGF-I receptor (human, UniProt P08069 31-1367); test: cell-based or functional assay
[2] = biological target: T2, guinea pig IGF-I receptor (guinea pig, UniProt P08069 31-1367 (human entry)); test: cell-based or functional assay
mouse IGF-I receptor [3] = biological target: T3, mouse IGF-I receptor (mouse, UniProt Q60751 31-1373); test: Cell ELISA on P3U1 cells expressing the receptor
T3 construct: Expressed on transfected P3U1 cells; also called NP_034643

rat IGF-I receptor [4] = biological target: T4, rat IGF-I receptor (rat, UniProt P24062 31-1370); test: Cell ELISA on P3U1 cells expressing the receptor
T4 construct: Expressed on transfected P3U1 cells; also called NP_494694

[5] = biological target: T5, Substitution 3 of the CR domain (human IGF-I receptor G315S/S316T, FLAG tag) (human, UniProt P08069 31-1367); test: Cell ELISA, 1 nM antibody, fixed HEK 293T cells
T5 construct: Expressed on transfected HEK 293T cells
Procedure: (§1) On the next day, each plasmid DNA was transfected into the cells by lipofection. On the following day, the HEK 293T cells were detached with 0.25% trypsin/EDTA and were suspended in a broth. The HEK 293T cells were added to a 96-well plate (coated with poly-D-lysine) at a concentration of 0.8×10⁵ cells/well and were incubated at 37° C. under conditions of 5% CO₂ overnight. The medium was removed from the 96-well plate, and the cells were immobilized with a 10% buffered formalin (Mildform® 10 NM, Wako). The 10% buffered formalin was replaced with a blocking buffer (3% BSA/PBS/sodium azide), and the plate was used in ELISA.
(§2) After washing with a washing liquid twice, anti-mouse-IgG antibody-HRP conjugate solutions (50 μL) adjusted to predetermined concentrations with 0.1% skimmed milk/3% BSA/PBS were added to respective wells and were subjected to reaction at room temperature for about 1 hour. After washing with a washing liquid twice, 100 μL of a substrate (TMB) was added to each well to start the reaction. After about 30 minutes, 100 μL of 0.5 M sulfuric acid was added to each well to stop the reaction, and the absorbances at 450 nm was measured. The value of the absorbance at 450 nm was evaluated as the avidity.

[6] = biological target: T6, wild-type rat IGF-I receptor (FLAG tag, Example 7) (rat, UniProt P24062 31-1370); test: Cell ELISA, 1 nM antibody, fixed HEK 293T cells
T6 construct: Expressed on transfected HEK 293T cells
Procedure: as §1, §2

[7] = biological target: T7, wild-type human IGF-I receptor (FLAG tag, Example 7) (human, UniProt P08069 31-1367); test: Cell ELISA, 1 nM antibody, fixed HEK 293T cells
T7 construct: Expressed on transfected HEK 293T cells
Procedure: as §1, §2

[8] = biological target: T8, Substitution 1 of the CR domain (human IGF-I receptor D245N/A247T, FLAG tag) (human, UniProt P08069 31-1367); test: Cell ELISA, 1 nM antibody, fixed HEK 293T cells
T8 construct: Expressed on transfected HEK 293T cells
Procedure: as §1, §2

[9] = biological target: T9, Substitution 2 of the CR domain (human IGF-I receptor E294D, FLAG tag) (human, UniProt P08069 31-1367); test: Cell ELISA, 1 nM antibody, fixed HEK 293T cells
T9 construct: Expressed on transfected HEK 293T cells
Procedure: as §1, §2

human insulin receptor = biological target: T10, human insulin receptor (human, UniProt P06213 28-1382); test: Cell ELISA, fixed HEK 293T cells expressing the receptor
T10 construct: whole, on cells; Expressed on transfected HEK 293T cells; also called INSR; hINSR
Procedure: The HEK 293T cells after the lipofection were added to a 96-well plate (coated with poly-D-lysine) at a concentration of 0.8×10⁵ cells/well (about 180 μL/well) and were immobilized with 10% buffered formalin (Mildform® 10 NM, Wako), followed by blocking with phosphate buffer containing 3% BSA. The plate was used in ELISA.
In ELISA, antibody solutions (30 μL) adjusted to predetermined concentrations with 0.1% skimmed milk/3% BSA/PBS were added to respective wells and were subjected to reaction at room temperature for about 1 hour. After washing with a washing liquid (tris buffer containing Tween) twice, anti-mouse-IgG antibody-ALP conjugate solutions (30 μL) adjusted to predetermined concentrations with 0.1% skimmed milk/3% BSA/PBS were added to respective wells and were subjected to reaction at room temperature for about 1 hour. After washing with a washing liquid twice, 100 μL of a substrate (PNPP) was added to each well to start the reaction.

[10] = biological target: T11, cynomolgus monkey IGF-I receptor (cynomolgus monkey, UniProt P08069 31-1367 (human entry)); test: Cell ELISA, 10 nM antibody, fixed P3U1 cells expressing the receptor
T11 construct: Expressed on transfected P3U1 cells; also called NP_001248281
Procedure: (§3) After the lipofection, the P3U1 cells were cultured at least overnight and were added to a 96-well plate (coated with poly-D-lysine) at a concentration of 0.8×10⁵ cells/well and immobilized with 10% buffered formalin (Mildform® 10 NM, Wako), followed by blocking with phosphate buffer containing 3% BSA. The resulting plate was used for ELISA.
(§4) After washing with a washing liquid twice, anti-mouse-IgG antibody-HRP conjugate solutions (30 μL) adjusted to predetermined concentrations with 0.1% skimmed milk/3% BSA/PBS were added to respective wells and were subjected to reaction at room temperature for about 1 hour. After washing with a washing liquid twice, 50 μL of a substrate (TMB) was added to each well to start the reaction. After about 20 minutes, 50 μL of 0.5 M sulfuric acid was added to each well. The absorbances at 450 nm and 550 nm were measured, and the difference between absorbance values at 450 nm and 550 nm was calculated.

rabbit IGF-I receptor = biological target: T12, rabbit IGF-I receptor (rabbit); test: as above
T12 construct: Expressed on transfected P3U1 cells; also called XP_017193273
Procedure: as §3, §4

human IGF-I receptor [11] = biological target: T1, human IGF-I receptor; test: as above
Procedure: as §3, §4

mouse IGF-I receptor [12] = biological target: T3, mouse IGF-I receptor; test: as above
Procedure: as §3, §4

rat IGF-I receptor [13] = biological target: T4, rat IGF-I receptor; test: as above
Procedure: as §3, §4

[14] = biological target: T2, guinea pig IGF-I receptor; test: as above
Procedure: as §3, §4

T4 sequence (P24062 31-1370 limits assumed): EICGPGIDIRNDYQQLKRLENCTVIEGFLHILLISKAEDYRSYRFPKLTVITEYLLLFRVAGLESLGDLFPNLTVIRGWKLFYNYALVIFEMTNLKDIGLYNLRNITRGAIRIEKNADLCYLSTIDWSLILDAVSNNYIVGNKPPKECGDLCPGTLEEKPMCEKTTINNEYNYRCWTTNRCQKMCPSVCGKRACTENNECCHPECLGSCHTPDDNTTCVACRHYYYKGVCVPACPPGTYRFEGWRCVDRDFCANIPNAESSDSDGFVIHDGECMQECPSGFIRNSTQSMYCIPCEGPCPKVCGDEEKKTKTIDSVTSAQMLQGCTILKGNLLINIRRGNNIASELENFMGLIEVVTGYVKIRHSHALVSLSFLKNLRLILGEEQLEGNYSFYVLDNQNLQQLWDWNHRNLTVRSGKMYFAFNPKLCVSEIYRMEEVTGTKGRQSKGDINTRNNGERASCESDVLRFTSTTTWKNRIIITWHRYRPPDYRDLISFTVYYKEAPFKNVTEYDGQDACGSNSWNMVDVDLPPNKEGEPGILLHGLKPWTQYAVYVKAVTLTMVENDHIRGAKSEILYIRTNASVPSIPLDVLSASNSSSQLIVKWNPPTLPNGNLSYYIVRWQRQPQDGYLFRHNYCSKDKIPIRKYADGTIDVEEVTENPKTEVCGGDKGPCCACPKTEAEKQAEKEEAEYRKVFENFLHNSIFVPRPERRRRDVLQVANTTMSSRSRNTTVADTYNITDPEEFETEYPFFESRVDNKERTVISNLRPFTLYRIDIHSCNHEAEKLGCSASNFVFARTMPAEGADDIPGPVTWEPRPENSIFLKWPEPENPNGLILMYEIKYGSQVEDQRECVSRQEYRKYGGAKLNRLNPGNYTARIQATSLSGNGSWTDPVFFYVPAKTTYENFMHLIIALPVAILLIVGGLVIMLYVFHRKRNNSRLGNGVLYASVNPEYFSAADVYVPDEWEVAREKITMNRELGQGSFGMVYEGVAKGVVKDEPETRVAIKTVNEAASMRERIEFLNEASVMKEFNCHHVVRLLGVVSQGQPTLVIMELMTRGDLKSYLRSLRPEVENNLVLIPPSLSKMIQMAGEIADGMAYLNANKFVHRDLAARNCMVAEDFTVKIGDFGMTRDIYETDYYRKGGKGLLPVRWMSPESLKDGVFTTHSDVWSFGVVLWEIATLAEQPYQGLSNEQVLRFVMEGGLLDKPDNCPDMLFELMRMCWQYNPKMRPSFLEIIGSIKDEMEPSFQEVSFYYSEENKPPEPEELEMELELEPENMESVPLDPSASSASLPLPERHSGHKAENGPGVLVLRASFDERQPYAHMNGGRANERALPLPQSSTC
T3 sequence (Q60751 other isoform, or with tags, fused parts or gaps limits assumed): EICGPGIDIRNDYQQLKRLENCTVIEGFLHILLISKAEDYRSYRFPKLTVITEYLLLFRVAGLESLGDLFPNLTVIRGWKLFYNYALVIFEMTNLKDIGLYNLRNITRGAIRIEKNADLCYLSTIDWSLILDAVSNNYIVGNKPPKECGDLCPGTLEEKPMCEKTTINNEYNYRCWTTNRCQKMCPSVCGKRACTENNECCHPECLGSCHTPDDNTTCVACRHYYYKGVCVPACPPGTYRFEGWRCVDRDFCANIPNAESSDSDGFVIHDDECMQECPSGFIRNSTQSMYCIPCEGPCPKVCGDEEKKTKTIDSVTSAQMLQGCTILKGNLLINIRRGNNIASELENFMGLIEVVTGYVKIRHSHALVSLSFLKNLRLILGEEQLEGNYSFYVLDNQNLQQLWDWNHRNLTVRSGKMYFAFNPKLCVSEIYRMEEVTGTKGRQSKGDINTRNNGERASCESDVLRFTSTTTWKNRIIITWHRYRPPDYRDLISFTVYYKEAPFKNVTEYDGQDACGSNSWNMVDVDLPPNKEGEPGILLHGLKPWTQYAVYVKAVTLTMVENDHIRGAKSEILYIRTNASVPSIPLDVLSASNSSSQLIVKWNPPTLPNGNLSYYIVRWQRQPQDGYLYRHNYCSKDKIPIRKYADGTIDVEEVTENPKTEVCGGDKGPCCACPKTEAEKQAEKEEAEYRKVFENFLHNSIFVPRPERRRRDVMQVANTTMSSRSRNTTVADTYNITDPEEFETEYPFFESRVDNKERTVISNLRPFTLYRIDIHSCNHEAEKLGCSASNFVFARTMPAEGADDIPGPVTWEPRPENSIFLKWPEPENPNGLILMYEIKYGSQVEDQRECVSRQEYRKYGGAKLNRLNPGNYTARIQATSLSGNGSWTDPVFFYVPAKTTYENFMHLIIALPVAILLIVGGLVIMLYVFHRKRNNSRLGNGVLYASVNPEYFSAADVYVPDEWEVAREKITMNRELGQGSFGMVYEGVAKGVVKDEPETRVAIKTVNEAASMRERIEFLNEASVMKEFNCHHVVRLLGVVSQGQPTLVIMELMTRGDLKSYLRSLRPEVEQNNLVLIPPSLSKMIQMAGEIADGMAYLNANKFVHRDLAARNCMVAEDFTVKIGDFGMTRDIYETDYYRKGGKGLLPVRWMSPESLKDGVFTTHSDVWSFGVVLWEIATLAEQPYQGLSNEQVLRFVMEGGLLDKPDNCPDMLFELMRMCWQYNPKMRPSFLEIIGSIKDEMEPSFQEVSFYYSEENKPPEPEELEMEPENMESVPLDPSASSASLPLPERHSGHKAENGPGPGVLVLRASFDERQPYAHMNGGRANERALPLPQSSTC
T12 sequence (chain, as listed by the source limits assumed): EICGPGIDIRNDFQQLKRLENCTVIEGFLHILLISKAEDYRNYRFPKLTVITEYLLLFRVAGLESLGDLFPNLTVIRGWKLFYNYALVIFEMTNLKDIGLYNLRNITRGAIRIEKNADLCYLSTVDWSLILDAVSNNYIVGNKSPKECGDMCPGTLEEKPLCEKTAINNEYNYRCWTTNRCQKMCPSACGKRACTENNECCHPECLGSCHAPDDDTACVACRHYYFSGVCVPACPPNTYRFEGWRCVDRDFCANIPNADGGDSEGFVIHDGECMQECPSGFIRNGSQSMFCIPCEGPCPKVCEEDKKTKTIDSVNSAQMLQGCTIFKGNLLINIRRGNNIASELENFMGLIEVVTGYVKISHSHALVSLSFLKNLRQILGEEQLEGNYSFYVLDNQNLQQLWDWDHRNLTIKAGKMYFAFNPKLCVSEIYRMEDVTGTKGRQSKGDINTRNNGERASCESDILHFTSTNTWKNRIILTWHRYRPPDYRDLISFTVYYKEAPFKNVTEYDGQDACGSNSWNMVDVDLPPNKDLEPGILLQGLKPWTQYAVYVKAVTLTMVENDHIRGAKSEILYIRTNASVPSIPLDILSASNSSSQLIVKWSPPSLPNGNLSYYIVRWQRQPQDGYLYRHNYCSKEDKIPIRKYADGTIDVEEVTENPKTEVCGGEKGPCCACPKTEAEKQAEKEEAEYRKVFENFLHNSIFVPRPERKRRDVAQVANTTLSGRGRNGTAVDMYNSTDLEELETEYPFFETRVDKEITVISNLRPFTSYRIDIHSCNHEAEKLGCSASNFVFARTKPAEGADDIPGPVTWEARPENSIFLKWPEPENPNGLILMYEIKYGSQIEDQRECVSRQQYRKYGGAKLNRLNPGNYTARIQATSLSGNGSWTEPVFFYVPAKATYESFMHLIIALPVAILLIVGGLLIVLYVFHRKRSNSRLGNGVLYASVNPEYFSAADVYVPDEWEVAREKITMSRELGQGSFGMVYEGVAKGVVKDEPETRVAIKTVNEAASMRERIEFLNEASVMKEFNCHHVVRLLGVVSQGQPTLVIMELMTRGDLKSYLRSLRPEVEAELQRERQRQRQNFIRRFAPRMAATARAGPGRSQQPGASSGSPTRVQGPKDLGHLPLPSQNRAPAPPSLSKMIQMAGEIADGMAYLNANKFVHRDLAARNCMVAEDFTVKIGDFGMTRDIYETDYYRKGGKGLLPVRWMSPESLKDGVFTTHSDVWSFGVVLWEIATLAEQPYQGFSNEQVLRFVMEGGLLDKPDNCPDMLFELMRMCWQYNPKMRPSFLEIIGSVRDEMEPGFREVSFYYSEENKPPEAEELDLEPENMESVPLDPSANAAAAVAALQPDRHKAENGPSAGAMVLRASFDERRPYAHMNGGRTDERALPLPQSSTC

- EC50 of the myoblast proliferative activity, human myoblasts (human IGF-I receptor [1]): 4 pM
- EC50 of the myoblast proliferative activity, guinea pig myoblasts [2]: 4 pM
- binding result (mouse IGF-I receptor [3]): no binding (tested: 10 nM)
- binding result (rat IGF-I receptor [4]): no binding (tested: 10 nM)
- absorbance at 450 nm [5]: ~1 absorbance at 450 nm
- absorbance at 450 nm [6]: ~1 absorbance at 450 nm
- absorbance at 450 nm [7]: ≥ 2 absorbance at 450 nm
- absorbance at 450 nm [8]: ≥ 2 absorbance at 450 nm
- absorbance at 450 nm [9]: ≥ 2 absorbance at 450 nm
- avidity (absorbance difference 405-550 nm, Mock cells = 1) at 0.5 nM (human insulin receptor): 1.1 fold of Mock cells
- avidity (absorbance difference 405-550 nm, Mock cells = 1) at 5 nM (human insulin receptor): 1.4 fold of Mock cells
- Avidity (absorbance difference 450-550 nm, Mock cells = 1) [10]: 5.4 fold of Mock cells
- Avidity (absorbance difference 450-550 nm, Mock cells = 1) (rabbit IGF-I receptor): 5.4 fold of Mock cells
- Avidity (absorbance difference 450-550 nm, Mock cells = 1) (human IGF-I receptor [11]): 5.4 fold of Mock cells
- Avidity (absorbance difference 450-550 nm, Mock cells = 1) (mouse IGF-I receptor [12]): 0.9 fold of Mock cells
- Avidity (absorbance difference 450-550 nm, Mock cells = 1) (rat IGF-I receptor [13]): 1 fold of Mock cells
- Avidity (absorbance difference 450-550 nm, Mock cells = 1) [14]: 5.3 fold of Mock cells
B1: IGF11-16 (antibody, mouse IgG1, kappa, V domains shown)
VH: QIQLQQPGAELVKPGASVKLSCKAPGYTFTSYWMHWVKQRPGQGLEWIGETNPSNSVTNYNEKFKSKATLTVDKSSSTAYMQLSSLTSEDSAVYYCTIGRGRGFAYWGQGTLVTVSA
VL: DIQMNQSPSSLSASLGDTITITCRASQNINFWLSWCQQKPGNIPKLLIYKASNLHTGVPSRFSGSGSGTDFTLTISSLQPEDIATYYCLQGQSYPYTFGGGTKLEIKR
notes: no cleavage site is stated; also called IGF-I receptor agonist antibody; IGF11-16 antibody
